Test results published in patent US20210130452A1 (Merck KGaA, published 2021).
Several values for one entry are separate records, joined by “and”; a condition that tells them apart may be missing. Equal entries are not always repeated.

Assays:
human IL-17A [1] = target: T1, human IL-17A (human, UniProt Q16552 24-155, biotinylated with Sulfo-NHS-LC-Biotin in the AlphaScreen assays only); test: AlphaScreen competition, hIL-17A - IL-17RC-Fc;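 further: Read-out after 1 h at room temperature with the receptor Fc-fusion, Acceptor beads and streptavidin-coated Donor beads present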
T1 construct: also called hIL-17A; recombinant human IL-17A
T1 sequence (Q16552 other isoform, or with tags, fused parts or gaps): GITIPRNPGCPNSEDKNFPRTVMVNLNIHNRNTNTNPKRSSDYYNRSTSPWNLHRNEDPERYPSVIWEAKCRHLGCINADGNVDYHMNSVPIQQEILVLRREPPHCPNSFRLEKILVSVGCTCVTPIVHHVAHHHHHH
Experimental: (§1) To this mixture, the IL-17RA or IL-17RC Fc-fusions, Acceptor beads and the streptavidin Donor beads were added and further incubated for 1 hour at RT.

human IL-17A [2] = target: T1, human IL-17A; test: SPR Biacore, hIL-17A on chip; periplasmic extract (*)
Experimental: (§2) Off-rates of the periplasmic extracts containing anti-IL-17 Nanobodies were measured by Surface Plasmon Resonance (SPR) using a Biacore T100 instrument. […] Periplasmic extracts containing IL-17 neutralizing Nanobodies were injected for 2 minutes at a flow rate of 45 μl/min to allow binding to chip-bound antigen. Next, binding buffer without periplasmic extracts was sent over the chip at the same flow rate to allow spontaneous dissociation of bound Nanobody. From the sensorgrams obtained for the different periplasmic extracts koff-values (k₄) were calculated.

human IL-17F [3] = target: T2, human IL-17F (human, UniProt Q96PD4 31-163, biotinylated with Sulfo-NHS-LC-Biotin in the AlphaScreen assays only); test: SPR Biacore, hIL-17F on chip; periplasmic extract (*); NB = no binding
T2 construct: also called hIL-17F; recombinant human IL-17F
T2 sequence: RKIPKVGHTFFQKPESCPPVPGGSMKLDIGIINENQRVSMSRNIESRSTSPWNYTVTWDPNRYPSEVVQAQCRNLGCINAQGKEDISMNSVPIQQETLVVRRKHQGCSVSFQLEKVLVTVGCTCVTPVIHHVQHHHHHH

human IL-17A [4] = target: T1, human IL-17A; test: cell-based or functional assay
human IL-17A [5] = target: T1, human IL-17A; test: AlphaScreen competition, hIL-17A - IL-17RA-Fc;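 further: receptor Fc-fusion plus Acceptor and streptavidin Donor beads incubated with the mixture for 1 h at room temperature before reading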
Experimental: as §1

[6] = target: T3, human IL-17A/F heterodimer (human, UniProt Q16552 24-155; Q96PD4 31-163, limits assumed, biotinylated with Sulfo-NHS-LC-Biotin in the AlphaScreen assays only); test: SPR Biacore, hIL-17A/F on chip; periplasmic extract (*); NB = no binding
T3 construct: also called hIL-17A/F
T3 sequence (Q16552 24-155 limits assumed, one chain of several): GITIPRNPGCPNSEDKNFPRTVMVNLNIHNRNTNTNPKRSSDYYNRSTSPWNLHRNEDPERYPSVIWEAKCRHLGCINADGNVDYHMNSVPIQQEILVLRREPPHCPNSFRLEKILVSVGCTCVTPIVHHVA
Experimental: as §2

human IL-17F [7] = target: T4, human IL-17F (human, UniProt Q96PD4 31-163); test: AlphaScreen hIL-17F-IL-17RC; vs IL17MS13E02
T4 construct: made in Hek293 cells (GenBank AF384857); also called hIL-17F; hIL17F
T4 sequence: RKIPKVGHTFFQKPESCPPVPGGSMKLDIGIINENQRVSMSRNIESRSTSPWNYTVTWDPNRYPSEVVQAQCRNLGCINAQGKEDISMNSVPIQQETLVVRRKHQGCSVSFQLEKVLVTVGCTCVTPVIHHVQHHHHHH

Cynomolgus monkey IL-17F [8] = target: T5, Cynomolgus monkey IL-17F (Cynomolgus monkey, UniProt G7P4V0 31-163); test: cell-based or functional assay
T5 sequence: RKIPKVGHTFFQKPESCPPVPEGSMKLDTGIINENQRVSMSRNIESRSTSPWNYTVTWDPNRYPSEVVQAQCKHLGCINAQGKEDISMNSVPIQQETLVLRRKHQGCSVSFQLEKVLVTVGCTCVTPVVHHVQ

Cynomolgus monkey IL-17A = Cynomolgus monkey IL-17A (Cynomolgus monkey, UniProt A0A2K5TTB0 24-155); test: cell-based or functional assay
Sequence of Cynomolgus monkey IL-17A (A0A2K5TTB0 entry or part of it): as the sequence (Q16552 24-155 limits assumed, one chain of several) above, with T3A, P8S, N34S, I77V, N78K, P104R counted along it

human IL-17A [9] = target: T6, human IL-17A (human, UniProt Q16552 24-155); test: cell-based or functional assay
T6 sequence (Q16552 other isoform, or with tags, fused parts or gaps): as the sequence (Q16552 other isoform, or with tags, fused parts or gaps) above

human IL-17F [10] = target: T7, human IL-17F (human, UniProt Q96PD4 31-163); test: cell-based or functional assay
T7 sequence: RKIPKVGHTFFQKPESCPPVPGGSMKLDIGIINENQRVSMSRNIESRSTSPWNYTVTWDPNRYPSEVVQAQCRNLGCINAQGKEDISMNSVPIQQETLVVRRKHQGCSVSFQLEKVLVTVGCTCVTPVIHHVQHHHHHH

human IL-17A [11] = target: T6, human IL-17A; test: KinExA, 300 pM Nanobody
Experimental: (§3) The affinity of a limited set of formatted Nanobodies was determined using the KinExA.

human IL-17F [12] = target: T7, human IL-17F; test: KinExA, 300 pM Nanobody
Experimental: as §3

human IL-17A [13] = target: T6, human IL-17A; test: competition ELISA IL17A-RA
Experimental: To this end, IL-17RA, respectively IL-17RC was coated at a concentration of 1 μg/ml in PBS.

human IL-17F [14] = target: T4, human IL-17F; test: SPR (Biacore) off-rate
Cynomolgus monkey IL-17F [15] = target: T8, Cynomolgus monkey IL-17F (Cynomolgus monkey, UniProt G7P4V0 31-163); test: SPR (Biacore) off-rate
T8 construct: also called cyno IL-17F; cIL-17F
T8 sequence: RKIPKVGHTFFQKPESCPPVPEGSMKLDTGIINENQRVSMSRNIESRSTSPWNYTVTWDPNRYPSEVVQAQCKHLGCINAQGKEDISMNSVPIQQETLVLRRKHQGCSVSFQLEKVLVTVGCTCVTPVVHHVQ

human IL-17F [16] = target: T4, human IL-17F; test: AlphaScreen IL-17F-IL-17RC; vs IL17MS16A04
human IL-17F [17] = target: T4, human IL-17F; test: cell-based or functional assay; remark: listed apart in the source
Cynomolgus monkey IL-17F [18] = target: T8, Cynomolgus monkey IL-17F; test: cell-based or functional assay; remark: listed apart in the source
rat IL-17A = target: T9, rat IL-17A (rat, UniProt Q61453 18-150, limits assumed); test: ELISA, coated IL-17A
T9 sequence (looked up): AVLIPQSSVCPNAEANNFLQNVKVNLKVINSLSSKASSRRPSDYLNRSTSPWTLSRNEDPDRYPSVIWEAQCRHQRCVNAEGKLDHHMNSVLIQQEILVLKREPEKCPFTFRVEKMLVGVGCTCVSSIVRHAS
Experimental: (§4) Binding of a selected panel of anti-IL-17 Nanobodies to IL-17 of other species was assessed using a binding ELISA. […] HRP (horseradish peroxidase) conjugated anti-myc (Serotec, MCA 2200P) was used for detection using esTMB as substrate.

marmoset IL-17A = target: T10, marmoset IL-17A (marmoset, IL-17A is a disulfide-linked homodimer. One chain is given.); test: ELISA, coated IL-17A
T10 chain: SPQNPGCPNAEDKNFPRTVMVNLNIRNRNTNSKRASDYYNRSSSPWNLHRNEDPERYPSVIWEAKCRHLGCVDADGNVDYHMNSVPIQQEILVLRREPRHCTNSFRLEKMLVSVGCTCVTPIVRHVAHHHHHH
Experimental: as §4

mouse IL-17A = target: T11, mouse IL-17A (mouse, UniProt Q62386 26-158); test: ELISA, coated IL-17A
T11 sequence (looked up): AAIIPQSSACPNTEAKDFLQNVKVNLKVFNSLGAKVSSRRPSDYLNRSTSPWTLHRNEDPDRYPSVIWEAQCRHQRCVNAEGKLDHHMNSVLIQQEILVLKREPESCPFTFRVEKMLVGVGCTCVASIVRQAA
Experimental: as §4

guinea pig IL-17A = guinea pig IL-17A (guinea pig); test: ELISA, coated IL-17A
Experimental: as §4

human IL-17A [19] = target: T6, human IL-17A; test: ELISA, coated IL-17A
Experimental: as §4

marmoset IL-17F = target: T12, marmoset IL-17F (marmoset, UniProt A6N6I9 31-163); test: ELISA, coated IL-17F;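 further: binding ELISA on coated antigen from various species, with bound Nanobodies revealed by an HRP-linked anti-myc antibody and esTMB substrate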
T12 sequence (looked up): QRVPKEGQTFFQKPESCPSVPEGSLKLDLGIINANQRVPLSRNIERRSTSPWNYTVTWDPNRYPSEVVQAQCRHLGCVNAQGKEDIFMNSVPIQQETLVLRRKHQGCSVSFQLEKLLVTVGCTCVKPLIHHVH
Experimental: as §4

human IL-17F [20] = target: T7, human IL-17F; test: ELISA, coated IL-17F;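 further: binding ELISA on coated antigen from various species, with bound Nanobodies revealed by an HRP-linked anti-myc antibody and esTMB substrate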
Experimental: as §4

human IL-17A [21] = target: T6, human IL-17A; test: SPR
[22] = target: T13, human IL-17A/F heterodimer (human, UniProt Q16552 24-155; Q96PD4 31-163, limits assumed); test: SPR
T13 construct: produced in E. coli, bought from R&D Systems (Cat 5194-IL/CF); also called hIL-17A/F
T13 sequence (Q16552 24-155 limits assumed, one chain of several): as the sequence (Q16552 24-155 limits assumed, one chain of several) above

human IL-17A [23] = target: T6, human IL-17A; test: SPR, IL-17A-Nanobody complex over captured IL-17RA
Text: The receptor (IL-17RA or IL-17RC) was captured via its human Fc-tail by an anti-human IgG-Fc antibody coated on the chip.

human IL-17A [24] = target: T6, human IL-17A; test: KinExA, 600 pM Nanobody
human IL-17A [25] = target: T6, human IL-17A; test: AlphaScreen IL-17A-IL-17RA, average
rat IL-17F = target: T14, rat IL-17F (rat, UniProt Q5BJ95 29-161); test: ELISA, coated IL-17F;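 further: binding ELISA on coated antigen from various species, with bound Nanobodies revealed by an HRP-linked anti-myc antibody and esTMB substrate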
T14 sequence (looked up): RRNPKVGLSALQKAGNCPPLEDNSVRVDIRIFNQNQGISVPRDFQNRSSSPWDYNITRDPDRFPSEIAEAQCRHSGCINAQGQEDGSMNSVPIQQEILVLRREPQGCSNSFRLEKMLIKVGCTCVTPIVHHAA
Experimental: as §4

mouse IL-17F = target: T15, mouse IL-17F (mouse, UniProt Q7TNI7 29-161); test: ELISA, coated IL-17F;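 further: binding ELISA on coated antigen from various species, with bound Nanobodies revealed by an HRP-linked anti-myc antibody and esTMB substrate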
T15 sequence (looked up): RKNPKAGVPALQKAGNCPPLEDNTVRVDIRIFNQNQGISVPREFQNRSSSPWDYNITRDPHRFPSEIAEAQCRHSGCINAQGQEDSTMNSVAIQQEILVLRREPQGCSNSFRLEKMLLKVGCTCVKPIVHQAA
Experimental: as §4

human IL-17A [26] = target: T6, human IL-17A; test: KinExA, 200 pM Nanobody

B1: 01G03 (VHH)
VHH: EVQLVESGGGLVQAGGSLRLSCAASERTISNYDMGWFRQAPGKERELIAADISWSALNTNYADSVKGRFTISRDNAKNMVYLQMNNLKPEDTAVYYCAARRSGYASFDNWGQGTQVTVSS
notes: Class 1 Nanobody (anti-IL-17A); not shown: c-myc, His6 tag
IC50 (human IL-17A [1]): 1.15 nM
koff (human IL-17A [2]): 0.00045 s⁻¹
binding result (human IL-17F [3]): no binding
IL-17A-induced IL-6 production in HT-1080 cells, Emax (human IL-17A [4]): 85.7%
IL-17A-induced IL-6 production in HT-1080 cells, IC50 (human IL-17A [4]): 68.3 nM
IC50 (human IL-17A [5]): 0.325 nM
binding result [6]: no binding

B2: IL17MS3071 (VHH)
VHH: EVQLVESGGGLVQPGGSLRLSCAASGRTYDALGWLRQAPGKEREFVAAISGSGDDTYYADSVKGRFTISRDNSKNTLYLQMNSLRPEDTAVYYCATRRGLYYVWDANDYENWGQGTLVTVSS
notes: variant of IL17MS13E02; Kabat numbering
IC50 fold difference vs WT (human IL-17F [7]): 0.3 fold

B3: 13B03-SH-Fc (Fc fusion, not shown: a dimerising Fc or GST)
chain: EVQLVESGGGSVQAGDSLRLSCAASGRANSINWFGWFRQTPGKEREFVAGIRWSDAYTEYANSVKGRFTISRDNAKNTVDLQMDSLKPEDTAVYYCVLDLSTVRYWGQGTQVTVSSEPKSSDKTHTCPPCP
notes: bivalent Fc fusion from Hek-293-6E cells; signal peptide left out; also called MSB0010493; 13B03VHH-SH-Fc
IC50, Cyno IL17F, HT-1080 bioassay (Cynomolgus monkey IL-17F [8]): 3.8 nM
IC50, Cyno IL17A, HT-1080 bioassay (Cynomolgus monkey IL-17A): 0.21 nM
Emax, hIL-17A induced IL-6, HT-1080, without HSA (human IL-17A [9]): 100%
IC50, hIL-17A induced IL-6, HT-1080, without HSA (human IL-17A [9]): 0.19 nM
IC50, hIL-17F induced IL-6, HT-1080, without HSA (human IL-17F [10]): 5.8 nM
Kd (human IL-17A [11]): 0.0002 nM
Kd (human IL-17F [12]): 0.132 nM
IC50 (human IL-17A [13]): 0.02 nM

B4: IL17MS3063 (VHH)
VHH: DVQLVESGGGLVQPGGSLRLSCAASGRTFSSYVVGWFRQAPGKEREFIGAISGSGESIYYAVSEKGRFTISRDNSKNTLYLQMNSLRPEDTAVYYCTADQEFGYLRFGRSEYWGQGTLVTVSS
notes: variant of IL17MS16A04; Kabat numbering
koff (human IL-17F [14]): 0.000655 s⁻¹
koff (Cynomolgus monkey IL-17F [15]): 0.00111 s⁻¹
IC50 fold difference vs WT (human IL-17F [16]): 3.7 fold
IC50 cell based assay hIL-17F (human IL-17F [17]): 14 nM
IC50 cell based assay cyno IL-17F (Cynomolgus monkey IL-17F [18]): 34.2 nM

B5: 03B08 (VHH)
VHH: EVQLVESGGGLVQAGGSLRLSCAASGFTFDDYAIGWFRQAPGKEREGVSCISSSDGSIYYADSVKGRFTISSDNAKNTVYLQMNSLKPEDTAVYHCARFGRTGWAEECVDYDYWGQGTQVTVSS
notes: as for B1
IC50 (human IL-17A [1]): 0.384 nM
koff (human IL-17A [2]): 0.0001 s⁻¹
binding result (human IL-17F [3]): no binding
IL-17A-induced IL-6 production in HT-1080 cells, Emax (human IL-17A [4]): 98.5%
IL-17A-induced IL-6 production in HT-1080 cells, IC50 (human IL-17A [4]): 3.6 nM
IC50 (human IL-17A [5]): 0.08 nM
binding result [6]: no binding

B6: 04G01 (VHH)
VHH: EVQLVESGGGLVQAGGSQRLSCTASGTIVNIHVMGWYRQAPGKQRELVALIFSGGSADYADSVKGRFTISRDNAKNTVYLEMNSLKAEDTAVYYCAAEIGYYSGGTYYSSEAHWGQGTQVTVSS
notes: Class 2; also called IL17MS04G01
OD (rat IL-17A): 0.004 OD
OD (marmoset IL-17A): 1.93 OD
OD (mouse IL-17A): -0.001 OD
OD (guinea pig IL-17A): 0.008 OD
OD (human IL-17A [19]): 1.9 OD
OD (marmoset IL-17F): 0.0005 OD
OD (human IL-17F [20]): -0.016 OD
koff (human IL-17A [21]): 0.00018 s⁻¹ and 0.000116 s⁻¹
koff [22]: 0.00023 s⁻¹ and 0.00017 s⁻¹
% Biacore binding (IL-17A-NB)-IL-17RA (human IL-17A [23]): -0.43%
Kd (human IL-17A [24]): 0.0134 nM
IC50 (human IL-17A [25]): 0.093 nM

B7: 01A01 (VHH)
VHH: EVQLVESGGGLVQAGGSLRLSCAASGFTFDDYDIGWFRQAPGKEREGVSCFTSSDGRTFYADSVKGRFTVSADNAKNTVYLQMNSLEPEDTAVYFCAAVNTFDESAYAAFACYDVVRWGQGTQVTVSS
notes: Class 4
OD (rat IL-17A): 0.004 OD
OD (marmoset IL-17A): 1.84 OD
OD (mouse IL-17A): -0.003 OD
OD (guinea pig IL-17A): 0.008 OD
OD (human IL-17A [19]): 1.83 OD
OD (rat IL-17F): 0.0005 OD
OD (mouse IL-17F): -0.0005 OD
% Biacore binding (IL-17A-NB)-IL-17RA (human IL-17A [23]): -1.04%
Kd (human IL-17A [26]): 0.0013 nM
